According to patent publication US20210253718A1, “FRIZZLED5 PROTEIN-BINDING AGENTS” (Modmab Therapeutics Corporation, priority 2016, published 2021):
Residue numbers refer to the chain shown, from its start.

B1: Fab-2915: anti-FZD5 Fab with antibody variable region Fv-2915; CDR SEQ ID NOs: 35, 36, 54, 93, 130, 166 (antibody, V domains shown)
VH: EVQLVESGGGLVQPGGSLRLSCAASGFNIYYYSMHWVRQAPGKGLEWVASIYSSYGYTSYADSVKGRFTISADTSKNTAYLQMNSLRAEDTAVYYCARGYHYYPYYSGLDYWGQGTLVTVSS
VL: DIQMTQSPSSLSASVGDRVTITCRASQSVSSAVAWYQQKPGKAPKLLIYSASSLYSGVPSRFSGSRSGTDFTLTISSLQPEDFATYYCQQAYYHSLITFGQGTKVEIK
B2: Fab-2909: anti-FZD5 Fab with antibody variable region Fv-2909; CDR SEQ ID NOs: 35, 36, 48, 87, 124, 161 (antibody, V domains shown)
VH: EVQLVESGGGLVQPGGSLRLSCAASGFNISSSYMHWVRQAPGKGLEWVASISSSSGYTSYADSVKGRFTISADTSKNTAYLQMNSLRAEDTAVYYCARTVRGSKKPYFSGWAMDYWGQGTLVTVSS
VL: DIQMTQSPSSLSASVGDRVTITCRASQSVSSAVAWYQQKPGKAPKLLIYSASSLYSGVPSRFSGSRSGTDFTLTISSLQPEDFATYYCQQSWSYHYLITFGQGTKVEIK
B3: Fab-2929: anti-FZD5 Fab with antibody variable region Fv-2929; CDR SEQ ID NOs: 35, 36, 68, 106, 144, 162 (antibody, V domains shown)
VH: EVQLVESGGGLVQPGGSLRLSCAASGFNISYYYIHWVRQAPGKGLEWVASIYPSSSSTSYADSVKGRFTISADTSKNTAYLQMNSLRAEDTAVYYCARGAMDYWGQGTLVTVSS
VL: B2 VL with S91W, W92Y, Y94S, H95Y, Y96G
B4: Fab-2913: anti-FZD5 Fab with antibody variable region Fv-2913; CDR SEQ ID NOs: 35, 36, 52, 91, 128, 165 (antibody, V domains shown)
VH: EVQLVESGGGLVQPGGSLRLSCAASGFNISYSSIHWVRQAPGKGLEWVASIYPYSSSTSYADSVKGRFTISADTSKNTAYLQMNSLRAEDTAVYYCARYGYYGLDYWGQGTLVTVSS
VL: B2 VL with S91W, W92G, S93V, Y94S, I98F

Legend:
PATU8988S cells [1] = experiment: Effect of anti-FZD5 Fabs on proliferation of pancreatic cancer cell lines (percent growth inhibition); type: cell-based, human; settings: Fab 2 μg/ml
[2] = system: CHO cells not expressing Frizzled CRD; experiment: Flow cytometry of anti-FZD5 Fab binding to CHO cells not expressing Frizzled CRD (background)
Text: (§1) The binding of anti-FZD5 Fabs to cell surface-expressed Frizzled protein was further determined for each member of the Frizzled family via flow cytometry and immunofluorescence analysis of a panel of 10 CHO cell lines, each ectopically over-expressing the extracellular cysteine-rich domain (CRD) of a different Frizzled protein family member.

FZD8 CRD = target: T1, FZD8 CRD (Homo sapiens, UniProt Q9H461); experiment: Flow cytometry of anti-FZD5 Fab binding to CHO cells overexpressing Frizzled CRD
T1 construct: K31-D155; GPI anchor signal (C); expressed in transfected cells; host or cells: CHO cells, lentiviral pLenti-puro
T1 sequence (Q9H461 31-155): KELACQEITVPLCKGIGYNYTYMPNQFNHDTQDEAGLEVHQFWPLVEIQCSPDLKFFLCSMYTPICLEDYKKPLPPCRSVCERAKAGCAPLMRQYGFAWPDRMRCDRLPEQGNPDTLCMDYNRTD
Method: (§2) Plasmids: pLCKO lentiviral vector used for knockout (TKO) library construction and expression of individual gRNAs was constructed as described previously (Hart et al., 2015). Briefly, single guide RNA (sgRNA) scaffold was amplified from px330 (Addgene 42230) and cloned into pLKO.TRC005 lentiviral vector (Broad Institute, Cambridge, Mass.) using AgeI/EcoRI restriction sites. BfuAI sites were added at the 5′ end of the sgRNA scaffold for cloning the TKO library or individual gRNA target sequences. Lenti Cas9-2A-BsdR vector used to generate Cas9 stable expression cell lines was constructed as described previously (Hart et al., 2015). Briefly, lentiCRISPR pXPR_001 (Addgene 49535) was modified through removal of the sgRNA scaffold region through NdeI/EcoRI digest and blunt ends generation using Large Klenow Fragment (NEB). 2A-puro was replaced with 2A-BsdR by PCR using the NheI/MluI sites. Each of the 10 human Frizzled cysteine rich domains (CRDs) were cloned into the lentiviral expression plasmid pLenti-puro in the following cassette: FZD_CRD-MYC-GPI.
(§3) Flow cytometry: Primary staining of cells was performed by treatment with 200 nM Frizzled profiler Fab. Alexa Fluor 488 AffiniPure F(ab′)2 was used as the secondary antibody (Jackson ImmunoResearch #109-546-097). c-Myc (9E10) IgG1 (primary antibody, Santa Cruz, lot #D0306) and Alexa Fluor 488 IgG (secondary antibody, Life technologies, lot #1458649) were used as controls. Dead cells were excluded by staining with Fixable Viability Dye eFluor 660 (eBioscience, catalogue number 65-0864). All reagents were used as per manufacturer's instructions. Flow cytometry was performed on a BD FACSCanto II flow cytometer (BD Biosciences), and data were analyzed with FlowJo software (FlowJo, LLC).
(§4) To confirm that the FZD5-WNT7B circuit is not driven simply by expression and rule out the possibility of a disconnect between RNA and protein levels for the Wnt receptors in HPAF-II cells, a panel of recombinant Fabs were generated, alternatively referred to herein as ‘Frizzled profiler’, that can detect and discriminate all but one of the ten Frizzled receptors. […] To characterize the binding specificity of these Fabs on cells, a panel of 10 CHO cell lines was generated, each expressing the CRD domain of a different myc-tagged Frizzled family member anchored at the plasma membrane through a GPI anchor (CHO-myc-FZDGPI). Despite the high sequence identity between Frizzled family members (FIG. 7A, FIG. 7B), selective Fabs were identified for FZD4, FZD5, FZD6 and FZD10 as assessed by immunofluorescence and flow cytometry (FIG. 7D and FIG. 8). […] The FZD8 CRD is most homologous to that of FZD5 (FIG. 7B). These Fabs can be used to discriminate expression of FZD1, FZD2, FZD4, FZD5, FZD6, FZD7, FZD8, FZD9 and FZD10 (FIG. 7D and FIG. 8). The ‘Frizzled profiler’ therefore consists of 10 different Fabs that can be used to discriminate expression of 9 different Frizzled family members. The Frizzled profiler was then used to confirm that HPAF-II cells express FZD1, FZD5, FZD6 and possibly FZD8 (FIG. 7E).
as §1

FZD1 CRD [3] = target: T2, FZD1 CRD (Homo sapiens, UniProt Q9UP38); experiment: Immunofluorescence of anti-FZD5 Fab binding to CHO cells overexpressing Frizzled CRD; design: key: −: no binding; +: very weak binder; ++: weak binder; +++: good binder; ++++: very good binder
T2 construct: D112-P238; GPI anchor signal (C); expressed in transfected cells; host or cells: CHO cells, lentiviral pLenti-puro
Method in brief: (§5)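 CHO panel, 10 lines, each w/ one human FZD CRD-myc-GPI (lentiviral). Anti-FZD5 Fabs applied; surface binding scored by IF, cross-checked by FACS.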

FZD9 CRD = target: T3, FZD9 CRD (Homo sapiens, UniProt O00144); experiment: as above; design: key: −: no binding; +: very weak binder; ++: weak binder; +++: good binder; ++++: very good binder
T3 construct: G35-A161; GPI anchor signal (C); expressed in transfected cells; host or cells: CHO cells, lentiviral pLenti-puro
T3 sequence (O00144 35-161): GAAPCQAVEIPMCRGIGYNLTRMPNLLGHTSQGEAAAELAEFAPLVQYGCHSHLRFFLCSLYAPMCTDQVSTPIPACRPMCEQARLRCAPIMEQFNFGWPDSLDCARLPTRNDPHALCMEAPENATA
Method in brief: as §5

FZD7 CRD = target: T4, FZD7 CRD (Homo sapiens, UniProt O75084); experiment: as above; design: key: −: no binding; +: very weak binder; ++: weak binder; +++: good binder; ++++: very good binder
T4 construct: D45-S169; GPI anchor signal (C); expressed in transfected cells; host or cells: CHO cells, lentiviral pLenti-puro
Method in brief: as §5

FZD2 CRD = target: T5, FZD2 CRD (Homo sapiens, UniProt Q14332); experiment: as above; design: key: −: no binding; +: very weak binder; ++: weak binder; +++: good binder; ++++: very good binder
T5 construct: D35-P161; GPI anchor signal (C); expressed in transfected cells; host or cells: CHO cells, lentiviral pLenti-puro
Method in brief: as §5

HPAFII cells = experiment: Effect of anti-FZD5 Fabs on proliferation of pancreatic cancer cell lines (percent growth inhibition); type: cell-based, human; settings: for percent growth inhibition, HPAFII 2 μg/ml: Fab 2 μg/ml; for percent growth inhibition, HPAFII 10 μg/ml: Fab 10 μg/ml
Method: (§6) The effect of presently disclosed anti-FZD5 Fabs on proliferation of RNF43 loss-of-function mutant pancreatic cancer cell lines HPAFII, PATU8988S and ASPC-1; and on pancreatic cancer cell line RWP1, was tested at […] and 10 μg/ml.

RWP1 cells = experiment: as above; type: cell-based, human; settings: Fab 10 μg/ml
Method: as §6

ASPC-1 cells = experiment: as above; type: cell-based, human; settings: Fab 10 μg/ml
Method: as §6

PATU8988S cells [4] = experiment: as above; type: cell-based, human; settings: Fab 10 μg/ml
Method: as §6

FZD1 CRD [5] = target: T2, FZD1 CRD; experiment: Flow cytometry of anti-FZD5 Fab binding to CHO cells overexpressing Frizzled CRD
Method: as §2, §3, §4, §1

Row | Molecule | percent growth inhibition, PATU8988s 2 μg/ml (PATU8988S cells [1]) [%] | Median fluorescence, Frizzled CRD overexpressed on CHO cells: None [2] | Median fluorescence, Frizzled CRD overexpressed on CHO cells: FZD8 (FZD8 CRD) | Immunofluorescence binding, Frizzled CRD overexpressed on CHO cells: FZD1 (FZD1 CRD [3]) | Immunofluorescence binding, Frizzled CRD overexpressed on CHO cells: FZD9 (FZD9 CRD) | Immunofluorescence binding, Frizzled CRD overexpressed on CHO cells: FZD7 (FZD7 CRD) | Immunofluorescence binding, Frizzled CRD overexpressed on CHO cells: FZD2 (FZD2 CRD) | percent growth inhibition, HPAFII 2 μg/ml (HPAFII cells) [%] | percent growth inhibition, HPAFII 10 μg/ml (HPAFII cells) [%] | percent growth inhibition, RWP1 10 μg/ml (RWP1 cells) [%] | percent growth inhibition, ASPC-1 10 μg/ml (ASPC-1 cells) [%] | percent growth inhibition, PATU8988s 10 μg/ml (PATU8988S cells [4]) [%] | Median fluorescence, Frizzled CRD overexpressed on CHO cells: FZD1 (FZD1 CRD [5])
1 | B1 | −6.43 | 4.49 | 10.00 | ++ | − | ++++ | +++ | −16.37 | −31.87 | 45.04 | 4.18 | −19.02 | 
2 | B2 | −9.95 | 3.4 | 7.43 | − | − | + | − | 2.87 | −2.57 | 14.89 | −9.30 | −16.04 | 
3 | B3 | −24.05 | 3.19 |  | − | − | + | − | 20.20 | 33.42 | 2.21 | 41.25 | −27.58 | 7.64
4 | B4 | −15.09 | 3.85 | 8.98 | ++ | − | ++++ | +++ | −5.59 | −28.52 | 68.29 | −7.73 | −43.04 | 
